Measurements published in paper doi:10.1101/2025.05.16.654284 (bioRxiv, 2025).
Values belong to the binder of their own block, whether it stands above or below them.

Target: T1, YbbP (E. coli, UniProt P77504 1-804)
T1 sequence: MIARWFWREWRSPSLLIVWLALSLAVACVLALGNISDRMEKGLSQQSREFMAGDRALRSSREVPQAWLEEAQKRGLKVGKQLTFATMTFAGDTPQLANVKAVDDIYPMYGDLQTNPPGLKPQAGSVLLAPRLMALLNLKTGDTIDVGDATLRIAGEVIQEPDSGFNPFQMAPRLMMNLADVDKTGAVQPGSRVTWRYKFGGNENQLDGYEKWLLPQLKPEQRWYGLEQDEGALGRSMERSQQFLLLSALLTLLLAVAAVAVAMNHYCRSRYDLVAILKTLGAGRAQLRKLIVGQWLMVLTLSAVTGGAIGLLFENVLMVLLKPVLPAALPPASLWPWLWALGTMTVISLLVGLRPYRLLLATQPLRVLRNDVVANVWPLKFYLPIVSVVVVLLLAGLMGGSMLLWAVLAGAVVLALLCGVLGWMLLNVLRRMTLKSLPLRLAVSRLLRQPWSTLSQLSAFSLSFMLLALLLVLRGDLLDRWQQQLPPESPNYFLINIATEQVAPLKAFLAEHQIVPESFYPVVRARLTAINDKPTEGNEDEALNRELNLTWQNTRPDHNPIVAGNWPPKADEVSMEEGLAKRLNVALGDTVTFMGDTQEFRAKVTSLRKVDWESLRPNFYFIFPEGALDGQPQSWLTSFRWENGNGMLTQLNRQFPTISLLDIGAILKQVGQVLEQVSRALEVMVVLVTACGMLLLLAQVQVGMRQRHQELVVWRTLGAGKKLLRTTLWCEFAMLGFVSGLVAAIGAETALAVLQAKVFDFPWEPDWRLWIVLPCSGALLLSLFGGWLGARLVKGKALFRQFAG
Assay: cryo-EM structure

stoichiometry N: 1
B1: TesA Ser36Ala (enzyme, E. coli, UniProt P0ADA1 27-208, looked up)
chain: ADTLLILGDALSAGYRMSASAAWPALLNDKWQSKTSVVNASISGDTSQQGLARLPALLKQHQPRWVLVELGGNDGLRGFQPQQTEQTLRQILQDVKAANAEPLLMQIRLPANYGRRYNEAFSAIYPKLAKEFDVPLLPFFMEEVYLKPQWMQDDGIHPNRDAQPFIADWMAKQLQPLVNHDS

stoichiometry N: 2
B2: YbbA (natural protein, E. coli)
chain: MPAENIVEVHHLKKSVGQGEHELSILTGVELVVKRGETIALVGESGSGKSTLLAILAGLDDGSSGEVSLVGQPLHNMDEEARAKLRAKHVGFVFQSFMLIPTLNALENVELPALLRGESSAESRNGAKALLEQLGLGKRLDHLPAQLSGGEQQRVALARAFNGRPDVLFADEPTGNLDRQTGDKIADLLFSLNREHGTTLIMVTHDLQLAARCDRCLRLVNGQLQEEA
